# Laboratory results taken from paper PMC2841647 (PLoS ONE, 2010).
# Key:
# [1] = Brain localization after intravenous injections (immunohistochemistry); format: in vivo, mouse; conditions: mice; four hours after the last intravenous injection; cortex, hippocampus, striatum, nucleus accumbens
# Experimental: Mice were injected twice with 200 µg of biotinylated tat-cyclotraxin-B. […] Brains were postfixed for 1 h in 4% paraformaldehyde and cut in 40-µm sections with a vibratome. Sections obtained at the same levels as for in vivo KIRA-ELISA analysis (see Fig. S8) were rinsed in PBS and incubated in TBS containing 0.05% Tween-20 with VectaStain ABC Elite kit (Vector Laboratories). […] Non-injected mice were used as negative controls for endogenous biotin.
# phospho(Y816)-TrkB = molecular target: T1, phospho(Y816)-TrkB (Mus musculus, UniProt P15209); assay: Western blot with phospho(Y816)-TrkB antibody after intravenous injection; format: in vivo; conditions: mice, i.v. injection, vs tat-empty
# T1 construct: KIRA-ELISA analysis of brain TrkB receptors from mice; from tissue; host or cells: adult Swiss mouse brain, 300-µm coronal slices
# T1 sequence (P15209 32-821): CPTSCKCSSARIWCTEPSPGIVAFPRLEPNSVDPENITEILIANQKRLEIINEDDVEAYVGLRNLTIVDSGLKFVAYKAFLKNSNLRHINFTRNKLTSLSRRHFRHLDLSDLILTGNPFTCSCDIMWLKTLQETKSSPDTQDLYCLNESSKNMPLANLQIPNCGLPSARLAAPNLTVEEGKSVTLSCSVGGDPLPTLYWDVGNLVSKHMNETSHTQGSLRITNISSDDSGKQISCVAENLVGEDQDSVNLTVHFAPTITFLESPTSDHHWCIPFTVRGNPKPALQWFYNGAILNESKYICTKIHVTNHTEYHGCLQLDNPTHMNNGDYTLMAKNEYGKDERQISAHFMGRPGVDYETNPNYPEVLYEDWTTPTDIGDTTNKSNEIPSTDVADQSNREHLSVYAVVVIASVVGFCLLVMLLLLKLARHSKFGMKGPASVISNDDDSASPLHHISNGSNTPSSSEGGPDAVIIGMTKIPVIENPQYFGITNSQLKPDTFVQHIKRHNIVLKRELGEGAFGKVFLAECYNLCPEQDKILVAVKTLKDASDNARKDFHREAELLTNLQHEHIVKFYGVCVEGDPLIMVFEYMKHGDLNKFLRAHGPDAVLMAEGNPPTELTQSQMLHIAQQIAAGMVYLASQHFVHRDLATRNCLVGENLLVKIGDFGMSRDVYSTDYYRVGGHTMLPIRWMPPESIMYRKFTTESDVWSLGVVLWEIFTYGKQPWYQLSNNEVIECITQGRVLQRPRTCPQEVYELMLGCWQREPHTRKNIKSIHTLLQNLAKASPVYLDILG
# Experimental: Cell lysates were prepared in boiling SDS (2%, w/v) as described previously and subjected to SDS-PAGE. Detection and analysis of eIF4E, MAPK and Akt phosphorylation were done using anti-total and -phospho-eIF4E antibodies (1∶1000, Cell Signaling), anti-total and -phospho-MAPK antibodies (1∶1000, Cell Signaling) or anti-total and–phospho (Ser473) Akt antibodies (1∶1000, Santa Cruz; 1∶1000, Cell Signaling, respectively), respectively. For TrkB expression analysis, cortical neurons were cultured for eight days and TetOn-rhTrkB cells were incubated overnight with doxycycline. Cells were solubilized as for KIRA-ELISA assays and lysates were centrifuged at 14,000×g for 20 min at 4°C. Cleared supernatant was collected and proteins were subjected to SDS-PAGE. Detection of rhTrkB-ECFP and neuronal mouse TrkB were performed using anti-GFP polyclonal antibody (1∶5000, Clontech) and anti-rodent TrkB polyclonal antibody (1 µg/ml, Upstate), respectively. TrkB phosphorylation was quantified using anti-phospho-TrkB antibody (kindly provided by M.V. Chao). Proteins were visualized using appropriate HRP-conjugated secondary antibodies and films were quantified by densitometry.
# Supplementary file pone.0009777.s009.tif: Figure S8 Protocol for in vivo KIRA-ELISA analysis after intravenous injection. […] Bands intensity have been quantified (down) Data are mean ± s.e.m. […]
# [2] = molecular target: T2, native TrkB receptors in cortical neurons (Mus musculus, UniProt P15209); assay: KIRA-ELISA (TrkB tyrosine phosphorylation) in primary cortical neurons; format: cell-based; conditions: cortical neurons, with or without 4 nM BDNF
# T2 construct: cortical neurons naturally express TrkB receptors; endogenous in cells; host or cells: primary cortical neurons from E16 mouse embryos
# T2 sequence (P15209 32-821): as above
# From the text: The human recombinant TrkB receptor was fluorescently tagged at its C-terminus with the Enhanced cyan fluorescent protein (rhTrkB-ECFP) by cloning the full human TrkB sequence (kindly provided by G. M. Brodeur) into the pECFP-N1 expression vector (Clontech). For inducible expression, rhTrkB-ECFP was subcloned into the tetracycline-responsive (TetOn) vector pTRE2 (Clontech). Chinese Hamster Ovary cells stably expressing rhTrkB-ECFP (TetOn-rhTrkB cells), were produced by transfection of the pTRE2-rhTrkB-ECFP plasmid into CHO-K1 TetOn cells (Clontech) followed by clone selection in 0.25 mg/ml hygromycin B (Invitrogen) and 0.1 mg/ml geneticin (G418; Invitrogen). Resistant cells were selected based on both fluorescence intensity and KIRA-ELISA profile after an overnight incubation in presence of 1000 ng/ml doxycycline (Clontech). Cortical neurons were prepared and cultured from E16 mouse embryos as described previously. The nnr5 PC12-TrkA, nnr5 PC12-TrkB and nnr5 PC12-TrkC cells (kindly provided by M. V. Chao) are NGF non-responding mutant PC12 cells stably transfected with TrkA, TrkB and TrkC cDNA, respectively.
# TrkB activity was quantified using the previously described KIRA-ELISA assay with slight modifications. Cortical neurons were seeded on polyornithin-coated flat-bottom 96-well culture plates (12×10^4 cells per well) and cultured eight days at 37°C in 5% CO2. TetOn-rhTrkB cells were seeded on flat-bottom 96-well culture plates (4×10^4 cells per well) and incubated overnight with 1000 ng/ml doxycycline (Figs. S1,S2) except when indicated. Fluorescence levels in TetOn-rhTrkB cells were verified before each assay. […] Assay was stopped by removing the medium on ice and membranes were solubilized using KIRA-ELISA solubilization buffer (NaCl 150 mM, Hepes 50 mM, Triton X-100 0.5%, thimerosal 0.01%, sodium orthovanadate 2 mM, supplemented with a cocktail of protease inhibitors) for 1 h at room temperature. Solubilized membranes were transferred for 2 h at room temperature onto ELISA microtiter plate (Nunc Maxisorp) pre-coated overnight at 4°C with appropriate antibodies [polyclonal anti-GFP (1∶5000, Clontech) for TetOn-rhTrkB, polyclonal anti-TrkB (1 µg/ml, Upstate) for cultured neurons and brain slices, for phosphorylation assays; monoclonal anti-GFP (1∶3000, Chemicon) for TetOn-rhTrkB, monoclonal anti-TrkB (1∶1000, BD Biosciences) for cultured neurons and brain slices, for total TrkB quantification]. […] Absorbance was read at 450 nm after addition of 3,3′,5′,5-tetramethyl-benzidine substrate (Sigma) and acidification with 1N hydrochloric acid.
# Concentration-response and competition curves were obtained using an iterative least-squares method derived from that of Parker & Waud (1971). […] Concentration-response curves and Eadie-Hofstee plots were analyzed using two-way ANOVA. Significance over time in locomotor activity studies was given using two-way ANOVA followed by Bonferroni's post-hoc test. […] One-way ANOVA followed by post-hoc Dunnett's test was used to evaluate statistical significance compare to saline group in EPM and FST procedures. n represents the number of independent experiments.
sequence,measurement,setting,value
YGRKKRRQRRRCNPMGYTKEGC [tat-cyclotraxin-B],detection in brain after intravenous injection,[1],detected in many brain structures
same,reduction in phospho(Y816)-TrkB band intensity,phospho(Y816)-TrkB,37.7±4.7%
same,TrkB inhibition compared with cyclotraxin-B,[2],similarly to cyclotraxin-B
